According to paper PMC11033526, “Direct binding of calmodulin to the cytosolic C-terminal regions of sweet/umami taste receptors” (Journal of Biochemistry, 2023):

Assays:
[1] = target: biotin-mT1r1 CT peptide (cytosolic C-terminal region of mouse taste receptor type 1 subunit 1) (mouse) (UniProt Q99PG6); experiment: SPR; Biacore 2000; biotinylated T1r peptides on a CAP chip (Biotin CAPture Kit); mCaM injected, 2-fold dilutions from 50 μM, -Ca2+ (1 mM EGTA), 25°C, 30 μl/min
[2] = target: biotin-mT1r2 CT peptide (cytosolic C-terminal region of mouse taste receptor type 1 subunit 2) (mouse) (UniProt Q925I4); experiment: as above
Sequence of biotin-mT1r2 CT peptide (cytosolic C-terminal region of mouse taste receptor type 1 subunit 2) (mouse) (Q925I4 other isoform, or with tags, fused parts or gaps): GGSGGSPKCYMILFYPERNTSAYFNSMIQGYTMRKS

[3] = target: biotin-mT1r3 CT peptide (cytosolic C-terminal region of mouse taste receptor type 1 subunit 3) (mouse) (UniProt Q925D8); experiment: as above
Sequence of biotin-mT1r3 CT peptide (cytosolic C-terminal region of mouse taste receptor type 1 subunit 3) (mouse) (Q925D8 other isoform, or with tags, fused parts or gaps): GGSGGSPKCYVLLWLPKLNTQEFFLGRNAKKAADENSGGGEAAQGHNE

[4] = target: FLAG-ySUMO-mT1r2 CTΔ (mouse); experiment: SPR; Biacore 2000; ySUMO-fusion proteins amine-coupled on a CM5 chip, ySUMO on the reference cell; mCaM injected, 2-fold dilutions from 40 μM, -Ca2+ (1 mM EGTA), 25°C, 30 μl/min
[5] = target: FLAG-ySUMO-mT1r3 CTΔ (mouse); experiment: as above
[6] = target: biotin-mT1r1 CT peptide (cytosolic C-terminal region of mouse taste receptor type 1 subunit 1) (mouse) (UniProt Q99PG6); experiment: SPR; Biacore 2000; biotinylated T1r peptides on a CAP chip (Biotin CAPture Kit); mCaM injected, 2-fold dilutions from 50 μM, +Ca2+ (1 mM CaCl2), 25°C, 30 μl/min; KD from equilibrium responses, 1:1 model
[7] = target: biotin-mT1r2 CT peptide (cytosolic C-terminal region of mouse taste receptor type 1 subunit 2) (mouse) (UniProt Q925I4); experiment: as above
[8] = target: biotin-mT1r3 CT peptide (cytosolic C-terminal region of mouse taste receptor type 1 subunit 3) (mouse) (UniProt Q925D8); experiment: as above
[9] = target: FLAG-ySUMO-mT1r2 CTΔ (mouse); experiment: SPR; Biacore 2000; ySUMO-fusion proteins amine-coupled on a CM5 chip, ySUMO on the reference cell; mCaM injected, 2-fold dilutions from 40 μM, +Ca2+ (1 mM CaCl2), 25°C, 30 μl/min; KD from equilibrium responses, 1:1 model
[10] = target: FLAG-ySUMO-mT1r3 CTΔ (mouse); experiment: as above

Sequence of biotin-mT1r1 CT peptide (cytosolic C-terminal region of mouse taste receptor type 1 subunit 1) (mouse) (Q99PG6 other isoform, or with tags, fused parts or gaps): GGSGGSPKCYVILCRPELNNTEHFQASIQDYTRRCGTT

response at 50 μM mCaM injection [1]: 5 RU
response at 50 μM mCaM injection [2]: 9.4 RU
response at 50 μM mCaM injection [3]: 16 RU
response at 40 μM mCaM injection [4]: 9.2 RU
response at 40 μM mCaM injection [5]: 13 RU
Req value at 25 μM mCaM injection [6]: 10.6 RU
Req value at 50 μM mCaM injection [7]: 11 RU
Req value at 50 μM mCaM injection [8]: 36.7 RU
Kd [9]: 41 µM
Req value at 40 μM mCaM injection [9]: 114 RU
Kd [10]: 80 µM
Req value at 40 μM mCaM injection [10]: 101 RU
Substance: mouse calmodulin (from UniProt P0DP26 1-149) (natural protein)
